Results: patent US20250361274A1, “PEPTIDE AND PEPTIDE-CONTAINING AGENT” (PEPTIDREAM INC., priority 2022, published 2025)
Numbered stars: 1 amine (or outer) side, 2 acyl side, 3 side chain; on linkers, the order of the positions; unused ones are H or OH. Bridge positions count the residues as written; N and C are the ends. Square brackets hold non-standard residues; d marks the D form. Ends that are not written are not given here. Peptide text beside a SMILES is read from it. KCOpipzaa = N6-(4-(carboxymethyl)piperazine-1-carbonyl)-L-lysine, O=C(NCCCC[C@H](N[*:1])C(=O)[*:2])N1CCN(CC(=O)[*:3])CC1; F3aa = (S)-2-amino-3-[3-(carboxymethyl)phenyl]propanoic acid, O=C([C@H](Cc1cccc(CC(=O)[*:3])c1)N[*:1])[*:2]; 3Pal(6-Ph) = N[C@@H](Cc1ccc(-c2ccccc2)nc1)C(=O)O; Phe(4-COOH) = N[C@@H](Cc1ccc(C(=O)O)cc1)C(=O)O; NMePhe(4-Me) = CN[C@@H](Cc1ccc(C)cc1)C(=O)O; Bip = N[C@@H](Cc1ccc(-c2ccccc2)cc1)C(=O)O; Phe(4-F) = N[C@@H](Cc1ccc(F)cc1)C(=O)O; Ala(4-THP) = N[C@@H](CC1CCOCC1)C(=O)O; cisHyp = O=C(O)[C@@H]1C[C@H](O)CN1; NMeF = CN[C@@H](Cc1ccccc1)C(=O)O; hCit = NC(=O)NCCCC[C@H](N)C(=O)O; 4Pal = N[C@@H](Cc1ccncc1)C(=O)O; Aad = N[C@@H](CCCC(=O)O)C(=O)O; Cha = N[C@@H](CC1CCCCC1)C(=O)O; βAla = NCCC(=O)O

Molecular target: T1, BMP7 (Homo sapiens, UniProt P18075)
T1 sequence (P18075 293-431): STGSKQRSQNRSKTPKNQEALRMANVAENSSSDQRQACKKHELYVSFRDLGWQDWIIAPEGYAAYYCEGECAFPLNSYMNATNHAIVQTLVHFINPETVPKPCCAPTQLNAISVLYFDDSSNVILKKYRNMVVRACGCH
Assay: BMP7 signal transduction inhibitory activity: SMAD1 phosphorylation by BMP7 stimulus, A549 cells
Format: cell-based
Conditions: A549 cells, 10 nM BMP7; peptides of Synthesis 2; peptide 1, 10, 100 nM
Experimental: In the present Example, BMP7 signal transduction inhibitory activity of each peptide consisting of an amino acid sequence set forth in any of SEQ ID NOs: 5 to 240 and 243 to 421 synthesized in Example 10 was verified by phosphorylation of SMAD1 caused by BMP7 stimulus. The evaluation was performed using 10 nM of BMP7 instead of BMP 4. Regarding SEQ ID NOs: 5 to 240, the concentrations of the peptides synthesized in the same manner as in Example 2 (shown as 2 in the row of Synthesis) were 1 nM, 10 nM, and 100 nM, and the concentrations of the peptides synthesized in the same manner as in Example 1 (shown as 1 in the row of Synthesis) were 10 nM, 100 nM, and 1,000 nM, similarly with Example 11. […] Regarding SEQ ID NOs: 243 to 273 and SEQ ID NOs: 299 to 321, the test was performed at the concentrations (10, 100, 1,000 nM) described in Table 6. […] Regarding SEQ ID NOs: 274 to 298, the test was performed at the concentrations (100, 300, 1,000 nM) described in Table 6. […] Regarding SEQ ID NOs: 322 to 370 and SEQ ID NOs: 393 to 421, the test was performed at the concentrations (1, 10, 100 nM). […] Regarding SEQ ID NOs: 371 to 391, the test was performed at the concentrations (10, 30, 90 nM). […] The evaluation tests of the signal transduction inhibitory activities of SEQ ID NOs: 87, 177, and 181 are as follows. Specifically, the inhibitory activity of BMP4 was evaluated in the same manner as in Example 11 that used A549 cells. Eight concentrations of the peptides were used at a common ratio of 1/3 starting from 2 nM. The inhibitory activity of BMP7 was evaluated in the same manner as in Example 12. Eight concentrations of the peptides were used at a common ratio of 1/3 starting from 100 nM. Note that recombinant Human Noggin Protein (R&D) as a positive control was used at the same concentration as that of the peptide. […] The inhibitory activity of BMP7 was evaluated using eight concentrations of the peptides at a common ratio of 1/3 starting from 1,000 nM in the same manner as in Example 12.

Molecule | aLISA BMP7
11 (ARVYVDRFKYPFYFFSCG; not fully specified; MOD_RES 8 F represents (S)-3-(1,1'-Biphenyl-4-yl)-2-aminopropanoic acid(Bph); MOD_RES 12 F represents (S)-3-(1,1'-Biphenyl-4-yl)-2-aminopropanoic acid(Bph); MOD_RES 14 F represents (S)-4-(2-amino-2-carboxyethyl)benzoic acid(F4COO); MOD_RES 15 F represents (S)-4-(2-amino-2-carboxyethyl)benzoic acid(F4COO)) [compound 11] | C (showed less than 50% of inhibitory activity in 10 nM-addition zone and showed 50% or more of inhibitory activity in 100 nM-addition zone)

Same assay, conditions: Table 2-2; 277 from 1,000 nM (1/3), 417 from 300 nM (1/4)

Molecule | IC50 [nM]
Cc1ccc(C[C@H]2C(=O)N[C@@H](CC(C)C)C(=O)N3C[C@@H](O)C[C@H]3C(=O)N[C@H](C(=O)NCCC(=O)N[C@H](CCC(=O)O)C(=O)O)CSCC(=O)N[C@@H](Cc3ccc(F)cc3)C(=O)NCC(=O)N(C)[C@@H](Cc3ccccc3)C(=O)NCC(=O)N[C@@H](Cc3ccc(-c4ccccc4)nc3)C(=O)NCC(=O)N[C@@H](CC(=O)O)C(=O)N[C@@H](CCC(=O)O)C(=O)N[C@@H](CC3CCCCC3)C(=O)N[C@@H](CCCC(=O)O)C(=O)N2C)cc1 [Peptide 417] ({CH2CO}-[Phe(4-F)]G[NMeF]G[3Pal(6-Ph)]GDE[Cha][Aad][NMePhe(4-Me)]L[cisHyp]C[βAla][dE]-OH; thioether N-14) | 15.6

Molecular target: T2, BMP4 (Homo sapiens, UniProt P12644)
T2 sequence (P12644 293-408): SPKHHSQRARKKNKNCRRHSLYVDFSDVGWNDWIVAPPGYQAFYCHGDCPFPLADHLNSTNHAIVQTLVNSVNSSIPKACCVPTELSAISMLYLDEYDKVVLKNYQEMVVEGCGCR
Assay: BMP4 signal transduction inhibitory activity: SMAD1 phosphorylation by BMP4 stimulus, AlphaLISA SureFire, A549 cells
Format: cell-based
Conditions: A549 cells, SMAD1 phosphorylation; peptides of Synthesis 2; peptide 0.02, 0.2, 2 nM
Experimental: In the present Example, a BMP4 signal transduction inhibitory activity of each peptide consisting of an amino acid sequence set forth in any of SEQ ID NOs: 5 to 240 and 243 to 421 synthesized in Example 10 was verified by phosphorylation of SMAD1 caused by BMP4 stimulus. A549 cells were cultured in MEM (Thermo Fisher Scientific) containing 10% FBS (Thermo Fisher Scientific), 1×Non-essential amino acids (Thermo Fisher Scientific), and 50 μg/mL Gentamicin. After TrypLE (Gibco) was used to peel the cells, seeding was performed in a 96-well plate for adhesion cells so that the number of cells would be 20,000 per well, followed by culturing for 48 hours. After the cells were cultured as described above, the culture medium was replaced with a peptide solution or recombinant Human Noggin Protein (R&D) solution as a positive control diluted to various concentrations in a nutrition-starved culture medium containing 0.1% BSA (Sigma) instead of FBS Thirty minutes after culturing, […], to stimulate it for 60 minutes. The culture medium was removed and the cells were lysed with Lysis Buffer provided with AlphaLISA (registered trademark) SureFire (registered trademark) Ultra SMAD1 (p-[…]/465) Assay kit (PerkinElmer). According to the protocol of the kit, a signal was detected using SpectraMax (registered trademark) Paradigm (registered trademark) multimode microplate reader (Molecular Devices). The obtained signal was analysed using GraphPad Prism (GraphPad Software). The % inhibition was calculated by considering non-stimulation as 100% inhibition and BMP stimulation only as 0% inhibition. Regarding SEQ ID NOs: 5 to 187, the concentrations of the peptides synthesized in the same manner as in Example 2 (shown as 2 in the row of Synthesis) were 0.02 nM, 0.2 nM, and 2 nM, and the concentrations of the peptides synthesized in the same manner as in Example 1 (shown as 1 in the row of Synthesis) were 0.2 nM, 2 nM, and 20 nM. The evaluation results were based on the results of evaluation using the peptides synthesized in the same manner as in Example 2. […] Regarding SEQ ID NOs: 243 to 321, the test was performed at the concentrations described in Table 6. […] Regarding SEQ ID NOs: 322 to 421, the test was performed at the concentrations described in Table 7. […] The evaluation tests of the signal transduction inhibitory activities of SEQ ID NOs: 87, 177, and 181 are as follows. Specifically, the inhibitory activity of BMP4 was evaluated in the same manner as in Example 11 that used A549 cells. Eight concentrations of the peptides were used at a common ratio of 1/3 starting from 2 nM. The inhibitory activity of BMP7 was evaluated in the same manner as in Example 12. Eight concentrations of the peptides were used at a common ratio of 1/3 starting from 100 nM. Note that recombinant Human Noggin Protein (R&D) as a positive control was used at the same concentration as that of the peptide. […] The inhibitory activity of BMP7 was evaluated using eight concentrations of the peptides at a common ratio of 1/3 starting from 1,000 nM in the same manner as in Example 12.

Molecule | aLISA BMP4
11 (ARVYVDRFKYPFYFFSCG; not fully specified; MOD_RES 8 F represents (S)-3-(1,1'-Biphenyl-4-yl)-2-aminopropanoic acid(Bph); MOD_RES 12 F represents (S)-3-(1,1'-Biphenyl-4-yl)-2-aminopropanoic acid(Bph); MOD_RES 14 F represents (S)-4-(2-amino-2-carboxyethyl)benzoic acid(F4COO); MOD_RES 15 F represents (S)-4-(2-amino-2-carboxyethyl)benzoic acid(F4COO)) [compound 11] | A (showed an inhibitory activity of 50% or more in a zone to which the peptide was added to in an amount of 0.2 nM)

Same assay, conditions: class of inhibition of SMAD1 phosphorylation by BMP4 stimulus, AlphaLISA, A549 cells

Molecule | aLISA BMP4
163 ({CH2CO}-ERVYVDR[Bip]SYY[Bip]Y[Phe(4-COOH)][Phe(4-COOH)]SC[βAla][dE]-OH; thioether N-17; not fully specified) [compound 163] | A (showed an inhibitory activity of 50% or more in a zone to which the peptide was added to in an amount of 0.2 nM)
164 ({CH2CO}-ERVYVDR[Bip]SYV[Bip]Y[Phe(4-COOH)][Phe(4-COOH)]HC[βAla][dE]-OH; thioether N-17; not fully specified) [compound 164] | A (showed an inhibitory activity of 50% or more in a zone to which the peptide was added to in an amount of 0.2 nM)
169 ({CH2CO}-E[hCit]VY[Ala(4-THP)]DR[Bip]SYV[Bip]Y[Phe(4-COOH)][Phe(4-COOH)]HC[βAla][dE]-OH; thioether N-17; not fully specified) [compound 169] | C (showed an inhibitory activity of less than 50% in 0.2 nM-addition zone and showed an inhibitory activity of 50% or more in 2 nM-addition zone were defined as B or C)
178 ({CH2CO}-ERV[Phe(4-COOH)][Ala(4-THP)]DR[Bip]PYV[Bip]Y[Phe(4-COOH)][Phe(4-COOH)]SC[βAla][dE]-OH; thioether N-17; not fully specified) [compound 178] | A (showed an inhibitory activity of 50% or more in a zone to which the peptide was added to in an amount of 0.2 nM)
179 ({CH2CO}-ERV[Phe(4-COOH)][Ala(4-THP)][KCOpipzaa]R[Bip]PY[F3aa][Bip]Y[Phe(4-COOH)][Phe(4-COOH)]SC[βAla][dE]-OH; thioether N-17; not fully specified) [compound 179] | C (showed an inhibitory activity of less than 50% in 0.2 nM-addition zone and showed an inhibitory activity of 50% or more in 2 nM-addition zone were defined as B or C)
180 ({CH2CO}-ERV[Phe(4-COOH)][Ala(4-THP)][KCOpipzaa]R[Bip]PY[cisHyp][Bip]Y[Phe(4-COOH)][Phe(4-COOH)]SC[βAla][dE]-OH; thioether N-17; not fully specified) [compound 180] | A (showed an inhibitory activity of 50% or more in a zone to which the peptide was added to in an amount of 0.2 nM)
182 ({CH2CO}-ERVY[Ala(4-THP)][KCOpipzaa]R[Bip]PY[F3aa][Bip]Y[Phe(4-COOH)][Phe(4-COOH)]SC[βAla][dE]-OH; thioether N-17; not fully specified) [compound 182] | A (showed an inhibitory activity of 50% or more in a zone to which the peptide was added to in an amount of 0.2 nM)
183 ({CH2CO}-ERVY[Ala(4-THP)][KCOpipzaa]R[Bip]PY[cisHyp][Bip]Y[Phe(4-COOH)][Phe(4-COOH)]SC[βAla][dE]-OH; thioether N-17; not fully specified) [compound 183] | A (showed an inhibitory activity of 50% or more in a zone to which the peptide was added to in an amount of 0.2 nM)
184 ({CH2CO}-ERVY[Ala(4-THP)][KCOpipzaa]R[Bip]PYP[Bip]Y[Phe(4-COOH)][Phe(4-COOH)]SC[βAla][dE]; thioether N-17) [compound 184] | A (showed an inhibitory activity of 50% or more in a zone to which the peptide was added to in an amount of 0.2 nM)
185 ({CH2CO}-E[KCOpipzaa]V[Phe(4-COOH)][Ala(4-THP)]DR[Bip]PY[F3aa][Bip][Phe(4-F)][Phe(4-COOH)][4Pal]SC[βAla][dE]; thioether N-17) [compound 185] | C (showed an inhibitory activity of less than 50% in 0.2 nM-addition zone and showed an inhibitory activity of 50% or more in 2 nM-addition zone were defined as B or C)
186 ({CH2CO}-E[KCOpipzaa]V[Phe(4-COOH)][Ala(4-THP)]DR[Bip]PY[cisHyp][Bip][Phe(4-F)][Phe(4-COOH)][4Pal]SC[βAla][dE]; thioether N-17) [compound 186] | A (showed an inhibitory activity of 50% or more in a zone to which the peptide was added to in an amount of 0.2 nM)
187 ({CH2CO}-E[KCOpipzaa]V[Phe(4-COOH)][Ala(4-THP)]DR[Bip]PYP[Bip][Phe(4-F)][Phe(4-COOH)][4Pal]SC[βAla][dE]; thioether N-17) [compound 187] | C (showed an inhibitory activity of less than 50% in 0.2 nM-addition zone and showed an inhibitory activity of 50% or more in 2 nM-addition zone were defined as B or C)
